Results reported in publication PMC7643339.
Each block holds one molecule with its values, some of them ahead of it.

What was measured:
[1] = biological target: mouse TLR9 ectodomain, uncleaved (without proteolytic activation) (mouse) (UniProt Q9EQU3); experiment: SEC; Superdex 200 10/300, 10 mM Tris pH 7.4, 0.15 M NaCl, no oligonucleotide; last step of the purification
[2] = biological target: T1, mTLR9-ECD, GluC-cleaved (mouse, UniProt Q9EQU3 26-818); experiment: fluorescence anisotropy; apparent, 1:1 fit; Anisotropy: 2 or 5 nM Alexa 488 oligo, protein to 100 nM; competition in 10 mM MES pH 6.0, 0.15 M NaCl, room temperature (direct titration buffer not separately)
T1 sequence: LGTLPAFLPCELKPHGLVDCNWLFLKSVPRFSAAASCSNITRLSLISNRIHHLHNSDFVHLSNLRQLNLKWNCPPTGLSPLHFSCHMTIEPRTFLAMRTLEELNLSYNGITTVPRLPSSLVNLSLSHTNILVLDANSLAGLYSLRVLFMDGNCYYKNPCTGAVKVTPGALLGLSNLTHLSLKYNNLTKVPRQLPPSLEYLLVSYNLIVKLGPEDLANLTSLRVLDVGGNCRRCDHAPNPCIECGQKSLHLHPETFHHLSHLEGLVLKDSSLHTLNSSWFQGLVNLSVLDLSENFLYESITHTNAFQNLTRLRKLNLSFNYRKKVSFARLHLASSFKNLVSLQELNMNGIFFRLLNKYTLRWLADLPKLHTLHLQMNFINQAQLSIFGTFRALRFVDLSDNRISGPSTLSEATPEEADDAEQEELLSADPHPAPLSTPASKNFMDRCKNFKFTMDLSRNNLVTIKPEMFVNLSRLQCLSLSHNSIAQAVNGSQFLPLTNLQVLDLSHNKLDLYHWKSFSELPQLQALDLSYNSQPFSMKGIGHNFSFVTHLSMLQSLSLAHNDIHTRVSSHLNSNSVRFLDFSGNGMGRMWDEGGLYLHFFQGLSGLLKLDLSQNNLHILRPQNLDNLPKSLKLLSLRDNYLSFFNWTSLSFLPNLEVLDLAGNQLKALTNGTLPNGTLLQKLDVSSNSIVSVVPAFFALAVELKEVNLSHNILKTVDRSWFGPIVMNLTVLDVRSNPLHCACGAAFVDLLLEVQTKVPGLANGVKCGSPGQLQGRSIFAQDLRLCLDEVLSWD

[3] = biological target: T2, mTLR9-ECD, uncleaved (mouse, UniProt Q9EQU3 26-818); experiment: fluorescence anisotropy; 1:1 fit; uncleaved; Anisotropy: 2 or 5 nM Alexa 488 oligo, protein to 100 nM; competition in 10 mM MES pH 6.0, 0.15 M NaCl, room temperature (direct titration buffer not separately)
T2 sequence: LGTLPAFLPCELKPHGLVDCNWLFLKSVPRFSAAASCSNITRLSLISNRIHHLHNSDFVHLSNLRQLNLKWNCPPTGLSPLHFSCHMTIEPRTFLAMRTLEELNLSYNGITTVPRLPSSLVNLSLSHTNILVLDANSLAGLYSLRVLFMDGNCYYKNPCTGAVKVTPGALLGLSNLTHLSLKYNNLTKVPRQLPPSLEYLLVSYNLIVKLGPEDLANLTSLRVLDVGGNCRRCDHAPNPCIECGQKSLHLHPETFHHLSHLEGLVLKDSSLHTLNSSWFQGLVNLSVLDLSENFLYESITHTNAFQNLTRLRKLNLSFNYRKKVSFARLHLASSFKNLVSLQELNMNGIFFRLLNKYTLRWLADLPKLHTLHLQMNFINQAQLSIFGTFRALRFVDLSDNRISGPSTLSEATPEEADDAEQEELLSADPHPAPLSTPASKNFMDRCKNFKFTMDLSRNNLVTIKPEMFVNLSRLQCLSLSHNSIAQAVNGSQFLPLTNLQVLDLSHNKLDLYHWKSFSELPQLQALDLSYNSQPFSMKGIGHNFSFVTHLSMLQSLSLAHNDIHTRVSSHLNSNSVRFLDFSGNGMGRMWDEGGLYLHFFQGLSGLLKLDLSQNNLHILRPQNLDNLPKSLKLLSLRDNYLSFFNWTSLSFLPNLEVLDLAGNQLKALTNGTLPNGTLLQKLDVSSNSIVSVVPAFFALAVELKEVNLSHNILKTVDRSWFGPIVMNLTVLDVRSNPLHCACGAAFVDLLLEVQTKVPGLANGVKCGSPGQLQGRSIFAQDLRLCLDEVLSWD

[4] = biological target: T3, mTLR9-ECD E617A/H642A (site B mutant) (mouse, UniProt Q9EQU3 26-818, E617A;H642A); experiment: fluorescence anisotropy; 1:1 fit; reports site A (KA); Anisotropy: 2 or 5 nM Alexa 488 oligo, protein to 100 nM; competition in 10 mM MES pH 6.0, 0.15 M NaCl, room temperature (direct titration buffer not separately)
T3 sequence: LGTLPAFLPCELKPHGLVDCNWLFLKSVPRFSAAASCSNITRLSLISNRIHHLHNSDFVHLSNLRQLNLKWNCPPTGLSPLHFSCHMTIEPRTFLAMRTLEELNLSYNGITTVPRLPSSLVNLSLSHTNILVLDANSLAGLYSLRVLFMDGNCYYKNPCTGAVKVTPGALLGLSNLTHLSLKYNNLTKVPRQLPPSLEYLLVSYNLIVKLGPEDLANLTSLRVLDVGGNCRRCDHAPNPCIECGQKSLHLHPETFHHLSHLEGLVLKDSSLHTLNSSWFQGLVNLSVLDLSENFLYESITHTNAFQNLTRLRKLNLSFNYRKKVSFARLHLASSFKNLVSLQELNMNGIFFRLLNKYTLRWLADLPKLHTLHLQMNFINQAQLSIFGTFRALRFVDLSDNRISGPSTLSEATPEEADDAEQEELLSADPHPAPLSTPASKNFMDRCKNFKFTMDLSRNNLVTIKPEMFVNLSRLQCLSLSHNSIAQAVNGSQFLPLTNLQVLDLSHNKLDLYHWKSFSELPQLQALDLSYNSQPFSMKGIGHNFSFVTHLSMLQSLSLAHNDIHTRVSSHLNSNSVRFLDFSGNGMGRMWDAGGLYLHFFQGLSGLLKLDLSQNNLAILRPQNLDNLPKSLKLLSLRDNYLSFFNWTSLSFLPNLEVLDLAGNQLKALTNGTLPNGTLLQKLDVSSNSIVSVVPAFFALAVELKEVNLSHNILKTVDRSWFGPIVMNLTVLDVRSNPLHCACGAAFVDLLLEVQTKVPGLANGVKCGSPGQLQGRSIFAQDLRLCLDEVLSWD

[5] = biological target: T4, mTLR9-ECD W96A/Y132A (site A mutant) (mouse, UniProt Q9EQU3 26-818, W96A;Y132A); experiment: mass photometry; a fraction dimerizes with ligand; Anisotropy: 2 or 5 nM Alexa 488 oligo, protein to 100 nM; competition in 10 mM MES pH 6.0, 0.15 M NaCl, room temperature (direct titration buffer not separately)
T4 sequence: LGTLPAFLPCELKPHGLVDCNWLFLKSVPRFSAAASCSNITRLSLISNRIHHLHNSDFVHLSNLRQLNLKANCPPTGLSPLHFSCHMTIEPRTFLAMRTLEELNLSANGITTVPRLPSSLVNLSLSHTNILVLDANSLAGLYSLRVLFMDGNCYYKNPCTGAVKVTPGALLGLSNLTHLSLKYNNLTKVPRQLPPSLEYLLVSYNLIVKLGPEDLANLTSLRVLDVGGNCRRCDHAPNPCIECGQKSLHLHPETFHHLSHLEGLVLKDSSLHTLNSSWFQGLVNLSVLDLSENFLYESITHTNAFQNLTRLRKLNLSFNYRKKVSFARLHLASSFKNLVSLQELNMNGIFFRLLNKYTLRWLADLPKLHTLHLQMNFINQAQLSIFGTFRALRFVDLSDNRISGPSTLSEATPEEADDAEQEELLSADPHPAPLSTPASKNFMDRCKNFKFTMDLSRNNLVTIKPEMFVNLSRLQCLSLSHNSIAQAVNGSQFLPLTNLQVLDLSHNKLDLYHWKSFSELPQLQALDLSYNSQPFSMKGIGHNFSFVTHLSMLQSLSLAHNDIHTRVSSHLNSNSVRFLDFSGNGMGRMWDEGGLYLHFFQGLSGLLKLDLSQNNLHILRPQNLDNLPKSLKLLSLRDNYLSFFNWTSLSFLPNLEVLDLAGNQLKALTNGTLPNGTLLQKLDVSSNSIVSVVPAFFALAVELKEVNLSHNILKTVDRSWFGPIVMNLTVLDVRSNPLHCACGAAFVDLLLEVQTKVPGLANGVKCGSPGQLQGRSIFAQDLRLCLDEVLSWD

[6] = biological target: T1, mTLR9-ECD, GluC-cleaved; experiment: fluorescence anisotropy; apparent, 1:1 fit; SI text gives 9.2 nM; Anisotropy: 2 or 5 nM Alexa 488 oligo, protein to 100 nM; competition in 10 mM MES pH 6.0, 0.15 M NaCl, room temperature (direct titration buffer not separately)
[7] = biological target: T1, mTLR9-ECD, GluC-cleaved; experiment: competition; vs Alexa 488 1668-12mer; Anisotropy: 2 or 5 nM Alexa 488 oligo, protein to 100 nM; competition in 10 mM MES pH 6.0, 0.15 M NaCl, room temperature (direct titration buffer not separately)
[8] = biological target: T1, mTLR9-ECD, GluC-cleaved; experiment: competition; Cheng-Prusoff; vs Alexa 488 1668-12mer; Anisotropy: 2 or 5 nM Alexa 488 oligo, protein to 100 nM; competition in 10 mM MES pH 6.0, 0.15 M NaCl, room temperature (direct titration buffer not separately)
[9] = biological target: T1, mTLR9-ECD, GluC-cleaved; experiment: fluorescence anisotropy; 1:1 fit; Anisotropy: 2 or 5 nM Alexa 488 oligo, protein to 100 nM; competition in 10 mM MES pH 6.0, 0.15 M NaCl, room temperature (direct titration buffer not separately)

stoichiometry N [1]: 2
Molecule: mouse TLR9 ectodomain, uncleaved (without proteolytic activation) (from UniProt Q9EQU3 26-818) (domain or fragment)

Molecule: TCCATGACGTTCCTGATGCT (ssDNA) [1668 (Alexa 488)]
Kd [2]: 2.8 nM
Kd [3]: 12 nM
Kd [4]: 40 nM

Molecule: TCCATGACGTTCCTGATGCT (ssDNA) [1668, unlabeled]
binding result [5]: binds

Molecule: TCCTTTCGTTTTTTTTTTTTTTT (ssDNA) [minM (Alexa 488)]
Kd [2]: 3.2 nM

Molecule: CATGACGTTCCT (ssDNA) [1668-12mer (Alexa 488)]
Kd [6]: 11 nM

Molecule: CATGACGTTCCT (ssDNA) [1668-12mer, unlabeled]
IC50 [7]: ~10 nM
Ki [8]: 8 nM

Molecule: CCTGGATGGGAA (ssDNA) [4084 (printed 4048 in Table 1; Alexa 488)]
Kd [9]: 29 nM
